Binding Score data for 2 molecules are collected here from patent publication US20050154189A1.

The assay has as its target Soluble CD28-Ig (human), P10747. Kind of assay: two-colour FACS profile on transfected cells; score of preference for CD28-Ig over CTLA-4-Ig vs WT hB7-1.

B1: Round 2 CD28A12-5 (ligand)
chain: ITPKSVTKRVKETVMLSCDYNTSTEELTSLRIYWRKDSKMXLAILPGKVQVWPEYKNRTITDMNDNLRIVILALRLSDSGTYTCVIQKPDLKGAYKLEHLTSVRLMIRADFPVPTINDLGNPSPNIRRLICSTSGGFPRPHLYWLENGEELNATNTTVSQDPGTELYMISSELDFNVTNNHSIVCLIKYGELLVSQIFPWSKPKQEPPIDQLPFWVIIPVSGALVLTAVVLYCLACRHVARWKRTRRNEETVGTERLSPIYLGSAQSSG
modifications: not fully specified; X: residue not identified in the source; ends and bridges not checked; also: glycosylated, sites not given here
Take B1: the Binding Score stood at 1.

B2: Round 2 CD28A4-9 (ligand)
chain: ITPKSVTKRVKETVMLSCDYNTSTEKLTSLRIYWQKDSKMVLAILPGKVQVWPEYKNRTITDMNDNPRIVILALRLSDSGTYTCVIQKPVLKGAYKLEHLTSVRLMIRADFPVPTINDLGNPSPNIRRLICSTSGGFPRPHLYWLENGEELNATNTTVSQDPETKLYMISSELDFNVTNNHSIVCLIKYGELSVSQIFPWSKPKQEPPIDQLPFWVIIPVSGALVLTAVVLYCPACRHVARWKRTRRNEETVGTERLSPIYLGSAQSRAEVPSLSX
modifications: not fully specified; X: residue not identified in the source; ends and bridges not checked
B2 registered a Binding Score of 1.
